The target in the series is Human type I collagen, P02452.
Chain of Human type I collagen, P02452 (P02452 162-1218, chain 1 of 2): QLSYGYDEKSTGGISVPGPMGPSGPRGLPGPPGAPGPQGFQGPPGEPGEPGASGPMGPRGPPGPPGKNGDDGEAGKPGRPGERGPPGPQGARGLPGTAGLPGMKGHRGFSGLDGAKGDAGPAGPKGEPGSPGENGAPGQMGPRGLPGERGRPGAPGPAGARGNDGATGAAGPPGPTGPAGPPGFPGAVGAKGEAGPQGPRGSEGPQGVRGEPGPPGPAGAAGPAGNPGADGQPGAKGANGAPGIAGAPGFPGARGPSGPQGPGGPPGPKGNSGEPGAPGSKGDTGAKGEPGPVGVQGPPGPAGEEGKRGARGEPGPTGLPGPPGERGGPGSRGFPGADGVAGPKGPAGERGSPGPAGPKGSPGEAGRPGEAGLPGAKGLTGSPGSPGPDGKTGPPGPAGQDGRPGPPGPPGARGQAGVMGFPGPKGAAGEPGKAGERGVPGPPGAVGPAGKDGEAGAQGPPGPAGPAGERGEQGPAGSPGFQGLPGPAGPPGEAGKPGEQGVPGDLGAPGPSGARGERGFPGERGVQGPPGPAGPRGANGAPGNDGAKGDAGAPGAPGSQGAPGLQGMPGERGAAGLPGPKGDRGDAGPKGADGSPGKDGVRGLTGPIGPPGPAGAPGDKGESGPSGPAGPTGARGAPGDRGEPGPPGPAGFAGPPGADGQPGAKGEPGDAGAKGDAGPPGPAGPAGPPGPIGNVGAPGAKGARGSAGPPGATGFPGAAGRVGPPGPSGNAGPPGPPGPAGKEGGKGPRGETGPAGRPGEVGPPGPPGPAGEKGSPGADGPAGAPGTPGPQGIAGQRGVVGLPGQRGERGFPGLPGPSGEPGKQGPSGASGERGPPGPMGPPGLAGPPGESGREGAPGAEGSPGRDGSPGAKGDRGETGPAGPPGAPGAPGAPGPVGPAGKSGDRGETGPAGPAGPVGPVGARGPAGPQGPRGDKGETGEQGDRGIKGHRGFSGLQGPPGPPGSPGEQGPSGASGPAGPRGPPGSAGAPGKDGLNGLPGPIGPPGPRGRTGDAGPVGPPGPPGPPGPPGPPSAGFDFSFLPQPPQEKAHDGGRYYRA
Chain of Human type I collagen, P02452 (chain, as listed by the source, chain 2 of 2): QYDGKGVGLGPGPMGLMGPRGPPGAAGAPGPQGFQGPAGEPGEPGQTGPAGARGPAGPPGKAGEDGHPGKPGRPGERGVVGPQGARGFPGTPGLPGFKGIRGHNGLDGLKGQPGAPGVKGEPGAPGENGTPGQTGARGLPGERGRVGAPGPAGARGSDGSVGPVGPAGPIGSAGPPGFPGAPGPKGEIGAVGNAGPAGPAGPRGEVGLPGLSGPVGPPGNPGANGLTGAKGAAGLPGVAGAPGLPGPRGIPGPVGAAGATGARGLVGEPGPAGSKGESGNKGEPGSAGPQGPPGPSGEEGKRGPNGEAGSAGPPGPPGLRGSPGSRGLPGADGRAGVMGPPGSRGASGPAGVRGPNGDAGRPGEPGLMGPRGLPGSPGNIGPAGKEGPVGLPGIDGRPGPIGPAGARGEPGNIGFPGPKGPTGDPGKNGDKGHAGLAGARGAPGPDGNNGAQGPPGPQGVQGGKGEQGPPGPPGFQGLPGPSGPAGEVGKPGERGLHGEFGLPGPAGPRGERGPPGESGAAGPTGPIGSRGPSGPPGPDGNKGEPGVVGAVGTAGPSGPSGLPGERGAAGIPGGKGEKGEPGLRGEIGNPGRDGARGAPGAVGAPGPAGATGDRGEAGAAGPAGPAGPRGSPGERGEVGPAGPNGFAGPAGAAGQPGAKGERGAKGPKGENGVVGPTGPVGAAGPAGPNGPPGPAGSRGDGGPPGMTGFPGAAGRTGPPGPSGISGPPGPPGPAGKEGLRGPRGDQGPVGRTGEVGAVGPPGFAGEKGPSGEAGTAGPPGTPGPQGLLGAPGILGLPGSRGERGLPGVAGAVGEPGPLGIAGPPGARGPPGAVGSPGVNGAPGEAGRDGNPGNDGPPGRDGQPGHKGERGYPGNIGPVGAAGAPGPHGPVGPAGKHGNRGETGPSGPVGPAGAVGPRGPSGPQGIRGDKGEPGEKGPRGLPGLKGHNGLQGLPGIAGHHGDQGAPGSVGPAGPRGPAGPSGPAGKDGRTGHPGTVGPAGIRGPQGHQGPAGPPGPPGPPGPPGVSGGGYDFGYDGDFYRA

B1: MMP1 (matrix metalloproteinase 1) (protein)
chain: FVLTEGNPRWEQTHLTYRIENYTPDLPRADVDHAIEKAFQLWSNVTPLTFTKVSEGQADIMISFVRGDHRDNSPFDGPGGNLAHAFQPGPGIGGDAHFDEDERWTNNFREYNLHRVAAHELGHSLGLSHSTDIGALMYPSYTFSGDVQLAQDDIDGIQAIYGRSQNPVQPIGPQTPKACDSKLTFDAITTIRGEVMFFKDRFYMRTNPFYPEVELNFISVFWPQLPNGLEAAYEFADRDEVRFFKGNKYWAVQGQNVLHGYPKDIYSSFGFPRTVKHIDAALSEENTGKTYFFVANKYWRYDEYKRSMDPGYPKMIAHDFPGIGHKVDAVFMKDGFFYFFHGTRQYKFDPKTKRILTLQKANSWFNCRKN
Regarding B1, the “collagen fiber, fibril and network structure on a substrate, by atomic force microscopy” value was “MMP-treated samples, however, showed a substantial amount of disorganized collagen and little remaining fiber/fibril formation”; the “collagen fiber, fibril and network structure on a substrate, by scanning electron microscopy” value is “MMP treatment of the substrate resulted in a readily observable amount of disruption of the collagen fibers, fibrils and network”.
